Among the targets are MLL CXXC M1200A (human, UniProt Q03164 1147-1203, M1200A); MLL CXXC domain WT (human, UniProt Q03164 1147-1203); MLL CXXC C1188A (human, UniProt Q03164 1147-1203, C1188A); MLL CXXC L1197A (human, UniProt Q03164 1147-1203, L1197A); MLL CXXC R1150A (human, UniProt Q03164 1147-1203, R1150A); MLL CXXC Q1187A (human, UniProt Q03164 1147-1203, Q1187A).
What all share (assay): NMR titration

One molecule from article PMC2908503 can be followed below.

As a reminder, the Kd is a measure of binding affinity in units of concentration. Higher therefore signals a looser complex.

Sequence of MLL CXXC domain WT (Q03164 1147-1203): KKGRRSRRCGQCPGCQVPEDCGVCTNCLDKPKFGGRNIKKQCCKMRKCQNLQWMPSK
Sequence of MLL CXXC L1197A (Q03164 1147-1203 L1197A): as the sequence (Q03164 1147-1203) above, with L51A counted along it
Sequence of MLL CXXC C1188A (Q03164 1147-1203 C1188A): as the sequence (Q03164 1147-1203) above, with C42A counted along it
Sequence of MLL CXXC M1200A (Q03164 1147-1203 M1200A): as the sequence (Q03164 1147-1203) above, with M54A counted along it
Sequence of MLL CXXC R1150A (Q03164 1147-1203 R1150A): as the sequence (Q03164 1147-1203) above, with R4A counted along it
Sequence of MLL CXXC Q1187A (Q03164 1147-1203 Q1187A): as the sequence (Q03164 1147-1203) above, with Q41A counted along it

B1: DNApal (dsDNA)
DNA 1: CCCTGCGCAGGG
DNA 2: CCCTGCGCAGGG
B1: the binding result with MLL CXXC M1200A and with MLL CXXC C1188A was “binds” in each case. In addition, the Kd with MLL CXXC domain WT came out at 44 µM. For the same molecule, the binding signal in the data set with MLL CXXC L1197A was 4 fold decrease in binding vs WT; with MLL CXXC R1150A, 5 fold decrease in binding vs WT; in the data set with MLL CXXC Q1187A, 6 fold higher Kd vs WT.
